# According to PMC4324353 (2014):
# Target: actin (Oryctolagus cuniculus, UniProt P68135)
row,Binder,Kd [nM]
1,Spire Sc3d WH2 c-Linker 3-WH2 d (second actin at Sc) (protein) KKDAHAMILEFIRSRPPLKKASDRQLGPPRMCEPSPREQLMESIRKGKELKQITPPEA,10
2,Spire Sc3d WH2 c-Linker 3-WH2 d (second actin at Sd) (protein) KKDAHAMILEFIRSRPPLKKASDRQLGPPRMCEPSPREQLMESIRKGKELKQITPPEA,30
